The supplement of paper PMC5949888

System: Saccharomyces cerevisiae PS128 hsf1 delta, HSF1(1-493) fusion
Test: growth estimate (transactivation domain function in HSF1 fusion, heat-shock survival) (a.u. (slope of normalised read count over time)); higher = stronger growth at 37°C, i.e. more transactivation activity
Details: library: design library
Procedure, shortened: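 Transactivation-domain oligos were designed and fused to a truncated yeast HSF1 (amino acids 1–493), then expressed in a yeast strain lacking hsf1. Replica plating onto –trp 5-FOA plates was followed by incubation at 30°C or 37°C for 0, 2, 4, 6 and 8 days. Inserts were amplified by PCR and sequenced on an Illumina MiSeq as six barcoded replicates from a single experiment. The growth estimate is the slope of a robust linear fit over time of read counts normalised to sample totals and to starting count.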

Sequence	growth estimate
PFPPTQDDFLKWWRSEEAQ	-0.215
PFPRTQDDFLKWWRSEEAQ	-0.248
PFRDTQDDFLKWWRSEEAQ	-0.0923
PGFPGIELQELQELQALLQQ	-0.0439
PKPDTQDDFLKWWRSEEAQ	-0.158
PLSSHGFSVDTSALLDLFSP	0.0027
PMDDVYNYLFDD	1.41
PPFPGIELQELQELQALLQQ	-0.187
PQNGEIAQLWDFN	-0.229
PRFPGIELQELQELQALLQQ	< -0.25
QGNGEIAQLWDFN	< -0.25
QKNGEIAQLWDFN	< -0.25
QQAGEIAQLWDFN	< -0.25
QQGGEIAQLWDFN	0.0021
QQKGEIAQLWDFN	< -0.25
QQNAEIAQLWDFN	< -0.25
QQNGAIAQLWDFN	-0.114
QQNGEGAQLWDFN	< -0.25
QQNGEIAALWDFN	-0.237
QQNGEIAGLWDFN	-0.148
QQNGEIAPLWDFN	< -0.25
QQNGEIAQAWDFN	< -0.25
QQNGEIAQGWDFN	-0.247
QQNGEIAQKWDFN	0.0645
QQNGEIAQLADFN	-0.24

Sequence	growth estimate
QQNGEIAQLGDFN	-0.218
QQNGEIAQLKDFN	-0.215
QQNGEIAQLRDFN	< -0.25
QQNGEIAQLWDAN	-0.23
QQNGEIAQLWDFA	< -0.25
QQNGEIAQLWDFK	< -0.25
QQNGEIAQLWDFN	-0.146
QQNGEIAQLWDFP	-0.243
QQNGEIAQLWDFR	-0.245
QQNGEIAQLWDGN	-0.163
QQNGEIAQLWDPN	-0.246
QQNGEIAQLWDRN	-0.121
QQNGEIAQLWGFN	< -0.261
QQNGEIAQLWKFN	< -0.25
QQNGEIAQLWRFN	-0.166
QQNGEIAQRWDFN	< -0.25
QQNGEIARLWDFN	-0.234
QQNGEIKQLWDFN	< -0.25
QQNGEIRQLWDFN	-0.0449
QQNGEKAQLWDFN	-0.22
QQNGEPAQLWDFN	-0.235
QQNGERAQLWDFN	-0.0438
QQNGGIAQLWDFN	-0.189
QQNGKIAQLWDFN	-0.237
QQNGRIAQLWDFN	-0.248

Sequence	growth estimate
QQNKEIAQLWDFN	-0.241
QQNPEIAQLWDFN	-0.234
QQNREIAQLWDFN	< -0.25
QQPGEIAQLWDFN	-0.242
QQRGEIAQLWDFN	< -0.25
RADDIWEELLSEDL	0.445
RDDDEFSLWDSML	0.648
RDLYSILWSDVY	-0.248
RFDLDMLGDFDLDMLG	0.634
RFDYDFLFGNDFA	2.62
RFNDLLDLDFILSN	-0.133
RFPDTQDDFLKWWRSEEAQ	-0.221
RLDESWDYIFETTE	-0.191
RMDDVYNYLFDD	-0.0132
RQNGEIAQLWDFN	< -0.25
TADDVYNYLFDD	0.0678
TGDDVYNYLFDD	-0.0152
TKDDVYNYLFDD	-0.238
TMADVYNYLFDD	0.169
TMDAVYNYLFDD	0.158
TMDDAYNYLFDD	-0.228
TMDDGYNYLFDD	< -0.25
TMDDPYNYLFDD	-0.0775
TMDDRYNYLFDD	-0.144
TMDDVGNYLFDD	< -0.25

Sequence	growth estimate
TMDDVKNYLFDD	< -0.25
TMDDVPNYLFDD	-0.232
TMDDVRNYLFDD	< -0.25
TMDDVYAYLFDD	4.4
TMDDVYGYLFDD	0.586
TMDDVYKYLFDD	0.872
TMDDVYNGLFDD	< -0.25
TMDDVYNKLFDD	< -0.25
TMDDVYNPLFDD	< -0.25
TMDDVYNRLFDD	-0.242
TMDDVYNYKFDD	< -0.25
TMDDVYNYLADD	0.274
TMDDVYNYLFAD	1.32
TMDDVYNYLFDA	0.681
TMDDVYNYLFDG	0.0766
TMDDVYNYLFDK	-0.18
TMDDVYNYLFDP	1.58
TMDDVYNYLFDR	-0.243
TMDDVYNYLFGD	1.05
TMDDVYNYLFKD	< -0.25
TMDDVYNYLFPD	1.69
TMDDVYNYLFRD	-0.0803
TMDDVYNYLGDD	-0.149
TMDDVYNYLKDD	< -0.25
TMDDVYNYLPDD	< -0.25

Sequence	growth estimate
TMDDVYNYLRDD	< -0.25
TMDDVYNYRFDD	-0.0969
TMDDVYPYLFDD	0.27
TMDDVYRYLFDD	1.71
TMGDVYNYLFDD	0.113
TMKDVYNYLFDD	< -0.25
TMPDVYNYLFDD	-0.0795
TPDDVYNYLFDD	< -0.25
TRDDVYNYLFDD	-0.222
VAADIWEELLSEDL	1.83
VADAIWEELLSEDL	0.167
VADDAWEELLSEDL	-0.24
VADDGWEELLSEDL	< -0.259
VADDIAEELLSEDL	-0.224
VADDIPEELLSEDL	-0.228
VADDIWAELLSEDL	8.23
VADDIWEALLSEDL	8.8
VADDIWEEALSEDL	-0.233
VADDIWEEKLSEDL	< -0.25
VADDIWEELASEDL	< -0.25
VADDIWEELGSEDL	-0.221
VADDIWEELKSEDL	-0.188
VADDIWEELLAEDL	2.64
VADDIWEELLGEDL	2.11
VADDIWEELLKEDL	7.64

Sequence	growth estimate
VADDIWEELLPEDL	-0.022
VADDIWEELLREDL	10.8
VADDIWEELLSADL	3.11
VADDIWEELLSEAL	5.63
VADDIWEELLSEDA	-0.0522
VADDIWEELLSEDG	0.0334
VADDIWEELLSEDK	-0.0473
VADDIWEELLSEDL	0.661
VADDIWEELLSEDP	0.229
VADDIWEELLSEDR	0.315
VADDIWEELLSEGL	10.4
VADDIWEELLSEKL	3.04
VADDIWEELLSEPL	5.18
VADDIWEELLSERL	5.09
VADDIWEELLSGDL	3.96
VADDIWEELLSKDL	2.92
VADDIWEELLSPDL	0.482
VADDIWEELLSRDL	6.53
VADDIWEELPSEDL	< -0.25
VADDIWEELRSEDL	-0.205
VADDIWEERLSEDL	< -0.25
VADDIWEGLLSEDL	0.676
VADDIWEKLLSEDL	2.03
VADDIWEPLLSEDL	-0.234
VADDIWERLLSEDL	2.04
